T1: S. mutans ComD protein (histidine kinase) (Streptococcus mutans)
T1 chain: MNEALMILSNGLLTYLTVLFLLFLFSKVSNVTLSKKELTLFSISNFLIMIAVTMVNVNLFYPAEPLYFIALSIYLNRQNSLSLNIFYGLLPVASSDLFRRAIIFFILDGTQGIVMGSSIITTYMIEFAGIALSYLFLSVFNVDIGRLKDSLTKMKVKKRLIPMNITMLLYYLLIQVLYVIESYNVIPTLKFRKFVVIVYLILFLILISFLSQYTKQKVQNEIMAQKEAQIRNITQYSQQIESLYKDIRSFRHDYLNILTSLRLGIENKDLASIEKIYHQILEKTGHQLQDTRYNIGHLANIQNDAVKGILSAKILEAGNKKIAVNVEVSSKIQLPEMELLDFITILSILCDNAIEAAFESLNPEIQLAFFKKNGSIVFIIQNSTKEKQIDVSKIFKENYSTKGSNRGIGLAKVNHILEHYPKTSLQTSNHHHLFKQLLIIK


Target: T1, S. mutans ComD protein (histidine …)
Assay: cell-based or functional assay

Binder	Transformation efficiency (vs no CSP), S. mutans wild-type UA159, 5 µg/ml peptide
SGSLSTFFRLFNRSFTQALGK [S. mutans competence signal peptide (CSP), mature wild-type CSP sequence]	1550 fold increase (vs no CSP)
SGSLSTFFRLFNRSFTQALGV [Peptide analog F2]	543 fold increase (vs no CSP)
SGSLSTFFALFNRSFTQALGK [Peptide analog C2]	32 fold increase (vs no CSP)
SGSSTFFRLFNRSFTQALGK [Peptide analog D1]	275 fold increase (vs no CSP)
SGSLSTFFVLFNRSFTQALGK [Peptide analog B2]	4 fold increase (vs no CSP)
SGSLSTFFRLFNVSFTQALGK [Peptide analog D2]	99 fold increase (vs no CSP)
SGSLSTFFRLFNRSFTQAGK [Peptide analog G1]	848 fold increase (vs no CSP)
SGSLSTFFRLFNRSFTQLGK [Peptide analog H1]	18 fold decrease (vs no CSP)
SGSLSTFFRLFNRSFTQALK [Peptide analog F1]	541 fold increase (vs no CSP)
SGTLSTFFRLFNRSFTQA [Peptide analog B3 (JH1005 CSP sequence)]	195 fold increase (vs no CSP)
SGSLSTFFRLFNASFTQALGK [Peptide analog E2]	252 fold increase (vs no CSP)
SGSLSTFFRLFNRSFTALGK [Peptide analog A2]	125 fold increase (vs no CSP)
SGSLSTFFRLFNRSFTQALGA [Peptide analog G2]	56 fold increase (vs no CSP)
SGSLTFFRLFNRSFTQALGK [Peptide analog E1]	791 fold increase (vs no CSP)

Target: T1, S. mutans ComD protein (histidine …)
Assay: cell-based or functional assay
Remark: another data set of the same source

Binder	Biofilm formation (SDM-glucose), S. mutans UA159, 5 µg/ml peptide
SGSLSTFFRLFNRSFTQALGV [Peptide analog F2]	38.7 % biomass (reduction)
SGSLSTFFRLFNRSFTQAGK [Peptide analog G1]	24.4 % biomass (reduction)
SGSLSTFFRLFNRSFTQALK [Peptide analog F1]	36.7 % biomass (reduction)
SGTLSTFFRLFNRSFTQA [Peptide analog B3 (JH1005 CSP sequence)]	34.4 % biomass (reduction)
SGSLSTFFRLFNASFTQALGK [Peptide analog E2]	38.9 % biomass (reduction)
SGSLSTFFRLFNRSFTQALGA [Peptide analog G2]	35.6 % biomass (reduction)

From patent US20100016234A1, “SIGNAL PEPTIDES, NUCLEIC ACID MOLECULES AND METHODS FOR TREATMENT OF CARIES” (The Governing Council of the University of Toronto, published 2010)
